T1: Bovine, dephosphorylated, Myelin Basic Protein (MBP), P02687
T1 chain: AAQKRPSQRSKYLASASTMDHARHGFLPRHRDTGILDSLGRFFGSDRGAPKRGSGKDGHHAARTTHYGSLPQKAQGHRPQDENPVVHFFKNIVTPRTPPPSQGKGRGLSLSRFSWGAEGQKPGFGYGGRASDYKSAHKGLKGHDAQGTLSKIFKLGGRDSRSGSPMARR

B1: PRKCE (protein)
chain: MVVFNGLLKIKICEAVSLKPTAWSLRHAVGPRPQTFLLDPYIALNVDDSRIGQTATKQKTNSPAWHDEFVTDVCNGRKIELAVFHDAPIGYDDFVANCTIQFEELLQNGSRHFEDWIDLEPEGRVYVIIDLSGSSGEAPKDNEERVFRERMRPRKRQGAVRRRVHQVNGHKFMATYLRQPTYCSHCRDFIWGVIGKQGYQCQVCTCVVHKRCHELIITKCAGLKKQETPDQVGSQRFSVNMPHKFGIHNYKVPTFCDHCGSLLWGLLRQGLQCKVCKMNVHRRCETNVAPNCGVDARGIAKVLADLGVTPDKITNSGQRRKKLIAGAESPQPASGSSPSEEDRSKSAPTSPCDQEIKELENNIRKALSFDNRGEEHRAASSPDGQLMSPGENGEVRQGQAKRLGLDEFNFIKVLGKGSFGKVMLAELKGKDEVYAVKVLKKDVILQDDDVDCTMTEKRILALARKHPYLTQLYCCFQTKDRLFFVMEYVNGGDLMFQIQRSRKFDEPRSRFYAAEVTSALMFLHQHGVIYRDLKLDNILLDAEGHCKLADFGMCKEGILNGVTTTTFCGTPDYIAPEILQELEYGPSVDWWALGVLMYEMMAGQPPFEADNEDDLFESILHDDVLYPVWLSKEAVSILKAFMTKNPHKRLGCVASQNGEDAIKQHPFFKEIDWVLLEQKKIKPPFKPRIKTKRDVNNFDQDFTREEPVLTLVDEAIVKQINQEEFKGFSYFGEDLMP
B2: PRKCI (protein)
chain: MPTQRDSSTMSHTVAGGGSGDHSHQVRVKAYYRGDIMITHFEPSISFEGLCNEVRDMCSFDNEQLFTMKWIDEEGDPCTVSSQLELEEAFRLYELNKDSELLIHVFPCVPERPGMPCPGEDKSIYRRGARRWRKLYCANGHTFQAKRFNRRAHCAICTDRIWGLGRQGYKCINCKLLVHKKCHKLVTIECGRHSLPQEPVMPMDQSSMHSDHAQTVIPYNPSSHESLDQVGEEKEAMNTRESGKASSSLGLQDFDLLRVIGRGSYAKVLLVRLKKTDRIYAMKVVKKELVNDDEDIDWVQTEKHVFEQASNHPFLVGLHSCFQTESRLFFVIEYVNGGDLMFHMQRQRKLPEEHARFYSAEISLALNYLHERGIIYRDLKLDNVLLDSEGHIKLTDYGMCKEGLRPGDTTSTFCGTPNYIAPEILRGEDYGFSVDWWALGVLMFEMMAGRSPFDIVGSSDNPDQNTEDYLFQVILEKQIRIPRSLSVKAASVLKSFLNKDPKERLGCHPQTGFADIQGHPFFRNVDWDMMEQKQVVPPFKPNISGEFGLDNFDSQFTNEPVQLTPDDDDIVRKIDQSEFEGFEYINPLLMSAEECV
B3: EPHB2 (protein)
chain: CNRRGFERADSEYTDKLQHYTSGHMTPGMKIYIDPFTYEDPNEAVREFAKEIDISCVKIEQVIGAGEFGEVCSGHLKLPGKREIFVAIKTLKSGYTEKQRRDFLSEASIMGQFDHPNVIHLEGVVTKSTPVMIITEFMENGSLDSFLRQNDGQFTVIQLVGMLRGIAAGMKYLADMNYVHRDLAARNILVNSNLVCKVSDFGLSRFLEDDTSDPTYTSALGGKIPIRWTAPEAIQYRKFTSASDVWSYGIVMWEVMSYGERPYWDMTNQDVINAIEQDYRLPPPMDCPSALHQLMLDCWQKDRNHRPKFGQIVNTLDKMIRNPNSLKAMAPLSSGINLPLLDRTIPDYTSFNTVDEWLEAIKMGQYKESFANAGFTSFDVVSQMMMEDILRVGVTLAGHQKKILNSIQVMRAQMNQIQSVEV

Biological target: T1, Bovine, dephosphorylated, Myelin Basic …

MBP Kinase Activity, Strong:
B1
B2
B3

Reference: patent publication US20090099029
